# Measured values from US20110091994A1, “Methods for Screening Compounds for Treating and/or Preventing an Hepatitis C Virus Infection” (priority 2008, published 2011).
# B1: PCYT2 (protein, UniProt Q99447 1-389, looked up)
# Ethanolamine-phosphate …: MIRNGRGAAGGAEQPGPGGRRAVRVWCDGCYDMVHYGHSNQLRQARAMGDYLIVGVHTDEEIAKHKGPPVFTQEERYKMVQAIKWVDEVVPAAPYVTTLETLDKYNCDFCVHGNDITLTVDGRDTYEEVKQAGRYRECKRTQGVSTTDLVGRMLLVTKAHHSSQEMSSEYREYADSFGKCPGGRNPWTGVSQFLQTSQKIIQFASGKEPQPGETVIYVAGAFDLFHIGHVDFLEKVHRLAERPYIIAGLHFDQEVNHYKGKNYPIMNLHERTLSVLACRYVSEVVIGAPYAVTAELLSHFKVDLVCHGKTEIIPDRDGSDPYQEPKRRGIFRQIDSGSNLTTDLIVQRIITNRLEYEARNQKKEAKELAFLEAARQQAAQPLGERDGDF
# B2: NID1 (protein, UniProt P14543 29-1247, looked up)
# Nidogen-1: LSRQELFPFGPGQGDLELEDGDDFVSPALELSGALRFYDRSDIDAVYVTTNGIIATSEPPAKESHPGLFPPTFGAVAPFLADLDTTDGLGKVYYREDLSPSITQRAAECVHRGFPEISFQPSSAVVVTWESVAPYQGPSRDPDQKGKRNTFQAVLASSDSSSYAIFLYPEDGLQFHTTFSKKENNQVPAVVAFSQGSVGFLWKSNGAYNIFANDRESVENLAKSSNSGQQGVWVFEIGSPATTNGVVPADVILGTEDGAEYDDEDEDYDLATTRLGLEDVGTTPFSYKALRRGGADTYSVPSVLSPRRAATERPLGPPTERTRSFQLAVETFHQQHPQVIDVDEVEETGVVFSYNTDSRQTCANNRHQCSVHAECRDYATGFCCSCVAGYTGNGRQCVAEGSPQRVNGKVKGRIFVGSSQVPIVFENTDLHSYVVMNHGRSYTAISTIPETVGYSLLPLAPVGGIIGWMFAVEQDGFKNGFSITGGEFTRQAEVTFVGHPGNLVIKQRFSGIDEHGHLTIDTELEGRVPQIPFGSSVHIEPYTELYHYSTSVITSSSTREYTVTEPERDGASPSRIYTYQWRQTITFQECVHDDSRPALPSTQQLSVDSVFVLYNQEEKILRYALSNSIGPVREGSPDALQNPCYIGTHGCDTNAACRPGPRTQFTCECSIGFRGDGRTCYDIDECSEQPSVCGSHTICNNHPGTFRCECVEGYQFSDEGTCVAVVDQRPINYCETGLHNCDIPQRAQCIYTGGSSYTCSCLPGFSGDGQACQDVDECQPSRCHPDAFCYNTPGSFTCQCKPGYQGDGFRCVPGEVEKTRCQHEREHILGAAGATDPQRPIPPGLFVPECDAHGHYAPTQCHGSTGYCWCVDRDGREVEGTRTRPGMTPPCLSTVAPPIHQGPAVPTAVIPLPPGTHLLFAQTGKIERLPLEGNTMRKTEAKAFLHVPAKVIIGLAFDCVDKMVYWTDITEPSIGRASLHGGEPTTIIRQDLGSPEGIAVDHLGRNIFWTDSNLDRIEVAKLDGTQRRVLFETDLVNPRGIVTDSVRGNLYWTDWNRDNPKIETSYMDGTNRRILVQDDLGLPNGLTFDAFSSQLCWVDAGTNRAECLNPSQPSRRKALEGLQYPFAVTSYGKNLYFTDWKMNSVVALDLAISKETDAFQPHKQTRLYGITTALSQCPQGHNYCSVNNGGCTHLCLATPGSRTCRCPDNTLGVDCIEQK
# B3: NID2 (protein, UniProt Q14112 31-1375, looked up)
# Nidogen-2: LHPDELFPHGESWGDQLLQEGDDESSAVVKLANPLHFYEARFSNLYVGTNGIISTQDFPRETQYVDYDFPTDFPAIAPFLADIDTSHGRGRVLYREDTSPAVLGLAARYVRAGFPRSARFTPTHAFLATWEQVGAYEEVKRGALPSGELNTFQAVLASDGSDSYALFLYPANGLQFLGTRPKESYNVQLQLPARVGFCRGEADDLKSEGPYFSLTSTEQSVKNLYQLSNLGIPGVWAFHIGSTSPLDNVRPAAVGDLSAAHSSVPLGRSFSHATALESDYNEDNLDYYDVNEEEAEYLPGEPEEALNGHSSIDVSFQSKVDTKPLEESSTLDPHTKEGTSLGEVGGPDLKGQVEPWDERETRSPAPPEVDRDSLAPSWETPPPYPENGSIQPYPDGGPVPSEMDVPPAHPEEEIVLRSYPASGHTTPLSRGTYEVGLEDNIGSNTEVFTYNAANKETCEHNHRQCSRHAFCTDYATGFCCHCQSKFYGNGKHCLPEGAPHRVNGKVSGHLHVGHTPVHFTDVDLHAYIVGNDGRAYTAISHIPQPAAQALLPLTPIGGLFGWLFALEKPGSENGFSLAGAAFTHDMEVTFYPGEETVRITQTAEGLDPENYLSIKTNIQGQVPYVSANFTAHISPYKELYHYSDSTVTSTSSRDYSLTFGAINQTWSYRIHQNITYQVCRHAPRHPSFPTTQQLNVDRVFALYNDEERVLRFAVTNQIGPVKEDSDPTPGNPCYDGSHMCDTTARCHPGTGVDYTCECASGYQGDGRNCVDENECATGFHRCGPNSVCINLPGSYRCECRSGYEFADDRHTCILITPPANPCEDGSHTCAPAGQARCVHHGGSTFSCACLPGYAGDGHQCTDVDECSENRCHPAATCYNTPGSFSCRCQPGYYGDGFQCIPDSTSSLTPCEQQQRHAQAQYAYPGARFHIPQCDEQGNFLPLQCHGSTGFCWCVDPDGHEVPGTQTPPGSTPPHCGPSPEPTQRPPTICERWRENLLEHYGGTPRDDQYVPQCDDLGHFIPLQCHGKSDFCWCVDKDGREVQGTRSQPGTTPACIPTVAPPMVRPTPRPDVTPPSVGTFLLYTQGQQIGYLPLNGTRLQKDAAKTLLSLHGSIIVGIDYDCRERMVYWTDVAGRTISRAGLELGAEPETIVNSGLISPEGLAIDHIRRTMYWTDSVLDKIESALLDGSERKVLFYTDLVNPRAIAVDPIRGNLYWTDWNREAPKIETSSLDGENRRILINTDIGLPNGLTFDPFSKLLCWADAGTKKLECTLPDGTGRRVIQNNLKYPFSIVSYADHFYHTDWRRDGVVSVNKHSGQFTDEYLPEQRSHLYGITAVYPYCPTGRK
# B4: NUP62 (protein, UniProt P37198 2-522, looked up)
# Nuclear pore glycoprotein p62: SGFNFGGTGAPTGGFTFGTAKTATTTPATGFSFSTSGTGGFNFGAPFQPATSTPSTGLFSLATQTPATQTTGFTFGTATLASGGTGFSLGIGASKLNLSNTAATPAMANPSGFGLGSSNLTNAISSTVTSSQGTAPTGFVFGPSTTSVAPATTSGGFSFTGGSTAQPSGFNIGSAGNSAQPTAPATLPFTPATPAATTAGATQPAAPTPTATITSTGPSLFASIATAPTSSATTGLSLCTPVTTAGAPTAGTQGFSLKAPGAASGTSTTTSTAATATATTTSSSSTTGFALNLKPLAPAGIPSNTAAAVTAPPGPGAAAGAAASSAMTYAQLESLINKWSLELEDQERHFLQQATQVNAWDRTLIENGEKITSLHREVEKVKLDQKRLDQELDFILSQQKELEDLLSPLEELVKEQSGTIYLQHADEEREKTYKLAENIDAQLKRMAQDLKDIIEHLNTSGAPADTSDPLQQICKILNAHMDSLQWIDQNSALLQRKVEEVTKVCEGRRKEQERSFRITFD
# B5: PICK1 (protein, UniProt Q9NRD5 1-415, looked up)
# PRKCA-binding protein: MFADLDYDIEEDKLGIPTVPGKVTLQKDAQNLIGISIGGGAQYCPCLYIVQVFDNTPAALDGTVAAGDEITGVNGRSIKGKTKVEVAKMIQEVKGEVTIHYNKLQADPKQGMSLDIVLKKVKHRLVENMSSGTADALGLSRAILCNDGLVKRLEELERTAELYKGMTEHTKNLLRAFYELSQTHRAFGDVFSVIGVREPQPAASEAFVKFADAHRSIEKFGIRLLKTIKPMLTDLNTYLNKAIPDTRLTIKKYLDVKFEYLSYCLKVKEMDDEEYSCIALGEPLYRVSTGNYEYRLILRCRQEARARFSQMRKDVLEKMELLDQKHVQDIVFQLQRLVSTMSKYYNDCYAVLRDADVFPIEVDLAHTTLAYGLNQEEFTDGEEEEEEEDTAAGEPSRDTRGAAGPLDKGGSWCDS
# B6: N-PAC (protein, UniProt Q49A26 1-553, looked up)
# Cytokine-like nuclear factor …: MAAVSLRLGDLVWGKLGRYPPWPGKIVNPPKDLKKPRGKKCFFVKFFGTEDHAWIKVEQLKPYHAHKEEMIKINKGKRFQQAVDAVEEFLRRAKGKDQTSSHNSSDDKNRRNSSEERSRPNSGDEKRKLSLSEGKVKKNMGEGKKRVSSGSSERGSKSPLKRAQEQSPRKRGRPPKDEKDLTIPESSTVKGMMAGPMAAFKWQPTASEPVKDADPHFHHFLLSQTEKPAVCYQAITKKLKICEEETGSTSIQAADSTAVNGSITPTDKKIGFLGLGLMGSGIVSNLLKMGHTVTVWNRTAEKCDLFIQEGARLGRTPAEVVSTCDITFACVSDPKAAKDLVLGPSGVLQGIRPGKCYVDMSTVDADTVTELAQVIVSRGGRFLEAPVSGNQQLSNDGMLVILAAGDRGLYEDCSSCFQAMGKTSFFLGEVGNAAKMMLIVNMVQGSFMATIAEGLTLAQVTGQSQQTLLDILNQGQLASIFLDQKCQNILQGNFKPDFYLKYIQKDLRLAIALGDAVNHPTPMAAAANEVYKRAKALDQSDNDMSAVYRAYIH
# B7: PDLIM5 (protein, UniProt Q96HC4 2-596, looked up)
# PDZ and LIM domain protein 5: SNYSVSLVGPAPWGFRLQGGKDFNMPLTISSLKDGGKAAQANVRIGDVVLSIDGINAQGMTHLEAQNKIKGCTGSLNMTLQRASAAPKPEPVPVQKGEPKEVVKPVPITSPAVSKVTSTNNMAYNKAPRPFGSVSSPKVTSIPSPSSAFTPAHATTSSHASPSPVAAVTPPLFAASGLHANANLSADQSPSALSAGKTAVNVPRQPTVTSVCSETSQELAEGQRRGSQGDSKQQNGPPRKHIVERYTEFYHVPTHSDASKKRLIEDTEDWRPRTGTTQSRSFRILAQITGTEHLKESEADNTKKANNSQEPSPQLASSVASTRSMPESLDSPTSGRPGVTSLTAAAAFKPVGSTGVIKSPSWQRPNQGVPSTGRISNSATYSGSVAPANSALGQTQPSDQDTLVQRAEHIPAGKRTPMCAHCNQVIRGPFLVALGKSWHPEEFNCAHCKNTMAYIGFVEEKGALYCELCYEKFFAPECGRCQRKILGEVISALKQTWHVSCFVCVACGKPIRNNVFHLEDGEPYCETDYYALFGTICHGCEFPIEAGDMFLEALGYTWHDTCFVCSVCCESLEGQTFFSKKDKPLCKKHAHSVNF
# Test system: HCV ORFs (Gal4-DB fusions)
# Assay: not given
# Type: binding, HCV genotype 1b, isolate con1
# Settings: human protein listed by gene symbol; the value names the HCV protein it interacts with
# 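Throughout, for IMAP Y2H IMAP1 (number of IST): yeast two-hybrid screens using HCV genotype 1b proteins fused to Gal4-DB as baits against prey cDNA libraries from human spleen and foetal brain, IMAP1 via transformation and IMAP2 via mating.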
# 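Throughout, for IMAP Y2H IMAP2 (number of IST): yeast two-hybrid screens using HCV genotype 1b proteins fused to Gal4-DB as baits against prey cDNA libraries from human spleen and foetal brain, IMAP1 via transformation and IMAP2 via mating.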
# 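Throughout, for Interaction with viral protein: yeast two-hybrid screens using HCV genotype 1b proteins fused to Gal4-DB as baits against prey cDNA libraries from human spleen and foetal brain, IMAP1 via transformation and IMAP2 via mating.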
row,Molecule,Interaction with viral protein
1,B1,NS3
2,B2,NS3
3,B3,NS3
4,B4,NS3
5,B5,NS3
6,B6,NS3
7,B7,NS3

# Target: T1, HCV ORFs (Gal4-DB fusions) (Hepatitis C virus genotype 1b, UniProt Q9WMX2)
# T1 construct: expressed in transfected cells; host or cells: Saccharomyces cerevisiae MAV203 (IMAP1) / AH109 (IMAP2)
# Assay: not given
# Type: binding, HCV genotype 1b, isolate con1
# Settings: HCV protein NS3 as bait; human protein as prey
# T1 sequence (Q9WMX2 1027-1657): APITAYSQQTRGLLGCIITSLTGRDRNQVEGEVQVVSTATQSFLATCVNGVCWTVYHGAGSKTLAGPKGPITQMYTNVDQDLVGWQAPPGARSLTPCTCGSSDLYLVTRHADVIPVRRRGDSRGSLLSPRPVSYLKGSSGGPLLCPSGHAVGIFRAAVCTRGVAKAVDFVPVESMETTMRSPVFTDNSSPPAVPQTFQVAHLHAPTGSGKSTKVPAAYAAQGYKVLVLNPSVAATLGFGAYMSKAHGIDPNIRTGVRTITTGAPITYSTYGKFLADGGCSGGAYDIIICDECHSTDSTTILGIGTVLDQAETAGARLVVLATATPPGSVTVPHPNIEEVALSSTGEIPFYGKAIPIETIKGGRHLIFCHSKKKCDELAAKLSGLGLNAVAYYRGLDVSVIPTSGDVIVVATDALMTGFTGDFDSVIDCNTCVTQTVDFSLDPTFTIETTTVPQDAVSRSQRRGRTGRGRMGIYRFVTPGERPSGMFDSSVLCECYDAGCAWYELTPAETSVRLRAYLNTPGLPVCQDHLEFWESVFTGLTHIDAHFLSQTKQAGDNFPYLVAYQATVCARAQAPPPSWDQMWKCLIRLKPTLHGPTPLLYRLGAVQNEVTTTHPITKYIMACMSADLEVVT
Molecule,IMAP Y2H IMAP1 (number of IST),IMAP Y2H IMAP2 (number of IST)
B1,1,
B2,2,
B3,2,
B4,3,
B5,3,
B6,2,11
B7,1,

# Target: T2, HCV proteins (Hepatitis C virus genotype 1b, UniProt Q9WMX2)
# T2 construct: expressed in transfected cells
# Assay: Validation by Y2H pairwise matrices;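 note: yeast two-hybrid pairwise tests of interactions first found in Y2H screens of HCV bait proteins against human cDNA libraries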
# Type: binding
# Settings: validation of interaction with HCV protein NS3
# T2 sequence (Q9WMX2 1027-1657): as above
row,Molecule,Y2H matrices
1,B1,+
2,B2,+
3,B3,+
4,B4,+
5,B5,+
6,B6,+
7,B7,+
